B1: Heterogeneous nuclear ribonucleoprotein U-like protein 2, residues 1 to 40; numbered along this chain, Q1KMD3 (parent)
chain: MEVKRLKVTELRSELQRRGLDSRGLKVDLAQRLQEALDAE

Variants of: B1
Assay: abundance fitness (aPCA) (normalised: wild type 0, dead -1); higher = more abundant; growth selection in yeast, the domain comes from the species named
Conditions: Homo sapiens

Abundance fitness of substitutions, site by site:
A30: F -0.217, W -0.236, N -0.422, Q 0.106, D -0.217, P -0.718, S -0.165, G -0.361, T -0.058, V 0.011, C -0.006, L -0.21, R 0.046
R23: S 0.167, Q 0.114, V -0.019, P -0.6, D 0.136, F -0.137, N 0.127, T 0.225, E 0.166, C 0.062, H 0.092, K 0.082, L -0.057, A 0.158, G 0.091, M -0.232, Y 0.041, W -0.185
L25: A 0.189, D 0.151, E 0.257, S 0.118, Q 0.046, H 0.105, C 0.019, W -0.248, I -0.095, G 0.095, V 0.066, T 0.155, Y -0.025, M -0.096
L33: H -0.467, R -0.368, C -0.403, M -0.239, S -0.243, E -0.085, Q -0.269, D -0.239, F -0.733, G -0.189, K -0.164, N -0.384, T -0.349, W -0.626, P -0.06, I -0.843
V27: G -0.014, I -0.047, M 0.002, Y -0.413, S 0.086, C 0.09, H -0.009, P 0.142, D 0.037, Q -0.246, N 0.049, K 0.087, L -0.087, E 0.038, W -0.339, T -0.063, R 0.049
E35: K 0.058, R -0.047, C -0.052, F -0.21, L -0.168, G -0.068, H -0.055, D 0.036, M 0.009, V -0.045, Y -0.294, P -0.339, I -0.167, T 0.005, S -0.018, N -0.036
L37: C -0.276, R -0.223, S -0.346, Q -0.113, T -0.179, H -0.032, V -0.078, E -0.157, M 0.001, F -0.112, A -0.337, N -0.381, W -0.266, G -0.319, D -0.24, I 0.223, K -0.199, P -0.282
K26: P -0.002, F -0.361, L -0.179, V -0.149, A -0.066, Q 0.008, I -0.117, M -0.048, T -0.154, R -0.074, S -0.189, E 0.107, W -0.146, D -0.019, Y -0.103, G -0.178
Q31: E 0.141, L 0.009, H -0.418, S 0.058, N 0.252, P -0.121, I 0.012, F -0.197, C -0.016, V -0.003, A 0.032, T 0.085, G -0.055, M -0.041, W -0.176, K 0.112
G24: P -0.578, M -0.81, T -0.837, W -1.47, C -0.773, A -0.832, Y -1.1, V -0.855, Q -0.612, S -0.703, R -1.03, K -0.945, L -0.984
D38: T -0.027, H -0.531, G -0.281, F -0.33, V -0.231, N 0.113, A -0.198, S -0.19, Y -0.243, E -0.013, Q -0.244, M -0.169, R -0.217, W -0.36, L -0.284, P -0.402, I -0.629, K -0.185, C -0.157
E40: N -0.253, G -0.224, D -0.122, S -0.311, L -0.849, C -0.017, T -0.405, P -0.543, W -1.14, V -0.529, H -0.545, I -0.641, R -0.381
A36: L -0.622, M -0.397, C -0.048, S -0.138, W -0.422, T -0.196, N -0.294, E -0.213, R -0.213, G -0.366, D -0.371, F -0.278, V -0.104, Q -0.211, K -0.354, Y -0.231, I -0.314, P -0.407
L20: N -0.77, T -0.563, W -0.624, H -0.572, R -0.558, G -0.51, I -0.151, V -0.358, M -0.033, S -0.496, P -0.65, Q -0.364, Y -0.462
A39: I -0.497, P -0.272, K -0.046, S -0.06, D -0.185, R 0.017, V -0.132, N 0.153, H -0.026, L -0.118, W -0.263, T -0.088, F -0.159, G -0.036, Q 0.005, Y -0.367
R32: L -0.854, G -0.339, V -0.643, T -0.405, I -1.08, A -0.394, Q -0.262, N -0.395, W -1, E -0.221, F -1.02, P -0.402, D -0.076, C -0.441, S -0.371, Y -0.191, H -0.399, M -0.567
S22: P 0.12, F 0.176, G -0.052, A 0.063, R -0.402, H 0.08, W -0.011, E -0.02, T 0.142, M -0.064, V 0.079, K -0.333, C -0.08, Q 0, L -0.153
D28: L -0.497, M -0.382, Y -0.715, W -1.35, Q -0.139, K -0.129, H -0.19, V -0.119, G -0.513, F -0.896, E 0.086, P -0.681, S -0.407, N -0.248, I -0.326, R -0.342, A -0.09
D21: H -0.422, Y -0.204, R -0.645, W -0.74, M -0.453, F -0.591, G -0.572, T -0.217, I -0.871, C -0.068, K -0.428, L -0.557, A -0.41
L29: E -0.174, D -0.104, Q -0.285, R -0.356, F -0.603, T -0.083, I -0.189, A -0.212, G -0.188, S -0.201, C -0.137, W -0.853, N -0.352, P -0.299, H -0.346, Y -0.486, K -0.31
Q34: W -0.624, L -0.415, G -0.236, P -0.396, T -0.145, I -0.432, D -0.256, Y -0.515, R -0.308, M -0.283, V -0.413, N -0.119, F -0.722, S -0.171, E -0.099, A -0.205, C -0.43, K -0.18
